One assay concerns the target T1, human GIP receptor (human, UniProt P48546 22-466).
T1 construct: whole, on cells; also called hGIPR; human glucose-dependent insulinotropic polypeptide receptor
T1 sequence (looked up): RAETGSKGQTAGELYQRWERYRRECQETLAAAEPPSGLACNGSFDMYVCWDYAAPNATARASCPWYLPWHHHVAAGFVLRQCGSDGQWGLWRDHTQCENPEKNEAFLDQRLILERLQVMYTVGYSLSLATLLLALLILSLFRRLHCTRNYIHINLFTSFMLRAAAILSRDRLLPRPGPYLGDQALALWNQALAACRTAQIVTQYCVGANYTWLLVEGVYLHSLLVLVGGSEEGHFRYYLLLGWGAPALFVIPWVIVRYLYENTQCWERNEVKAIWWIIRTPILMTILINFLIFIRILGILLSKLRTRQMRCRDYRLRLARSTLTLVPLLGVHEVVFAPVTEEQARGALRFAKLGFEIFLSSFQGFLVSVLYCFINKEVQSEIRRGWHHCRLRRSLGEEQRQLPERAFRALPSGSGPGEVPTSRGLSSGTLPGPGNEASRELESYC
Put plainly: SPA competition vs [125I]-GIP, hGIPR membranes.

The next assay has as its target T2, human glucagon receptor (human, UniProt P47871 26-477).
T2 construct: whole, on cells; also called hGCGR; hGcgR
Kind of assay: SPA competition vs [125I]-Gcg, hGcgR membranes.

The next assay addresses T3, human GLP-1 receptor (human, UniProt P43220 24-463).
T3 construct: whole, on cells; also called hGLP-1R; human glucagon-like peptide-1 receptor
Kind of assay: SPA competition vs [125I]-GLP-1, hGLP-1R membranes. A digest of the protocol: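 Competition binding in 25 mM HEPES pH 7.4, 2.5 mM CaCl₂, 1 mM MgCl₂, 0.1% bacitracin, 0.003% TWEEN-20, EDTA-free protease inhibitors. IC₅₀ from four-parameter nonlinear fit; Kᵢ given as geometric mean ± SEM, n = independent replicates on different days.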

*1 amine or outer side, *2 acyl side, *3 side chain or, on linkers, in order; H or OH if unused. Where no end group is shown, it is not given here. Side-chain parts run from the residue outwards. [ ]: non-standard residue; d: D form. The star is where a group is joined. Decanoyl(10-(4-HOOC-PhO)) = O=C(O)c1ccc(OCCCCCCCCCC(=O)*)cc1; αMePhe(2-F) = C[C@](N)(Cc1ccccc1F)C(=O)O; γGlu = O=C(O)[C@H](CCC(=O)[*:2])N[*:1]; αMeY = C[C@](N)(Cc1ccc(O)cc1)C(=O)O; 4Pal = N[C@@H](Cc1ccncc1)C(=O)O; αMeL = CC(C)C[C@](C)(N)C(=O)O; Lauroyl = CCCCCCCCCCCC(=O)*; Orn = NCCC[C@H](N)C(=O)O; AEEA = NCCOCCOCC(=O)O; Aib = CC(C)(N)C(=O)O

Consider 15 molecules from US20230265151A1, “GIP/GLP1 CO-AGONIST COMPOUNDS” (priority 2020, published 2023).

T2 sequence (P47871 26-477): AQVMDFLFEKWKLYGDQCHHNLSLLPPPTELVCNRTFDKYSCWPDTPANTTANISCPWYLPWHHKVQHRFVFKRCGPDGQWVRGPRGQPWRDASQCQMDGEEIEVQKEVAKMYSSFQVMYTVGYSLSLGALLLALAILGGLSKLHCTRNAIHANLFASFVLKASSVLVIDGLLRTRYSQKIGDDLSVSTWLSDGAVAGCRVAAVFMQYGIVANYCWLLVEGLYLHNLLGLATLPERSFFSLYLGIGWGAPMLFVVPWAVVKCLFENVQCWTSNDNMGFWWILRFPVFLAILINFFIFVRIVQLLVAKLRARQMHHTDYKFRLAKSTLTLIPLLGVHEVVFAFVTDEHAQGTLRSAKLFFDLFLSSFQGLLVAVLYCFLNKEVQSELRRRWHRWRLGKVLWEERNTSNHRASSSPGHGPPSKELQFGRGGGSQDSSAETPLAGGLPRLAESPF

B1: Y-Aib-EGT-aMeF(2F)-TSD-4Pal-Aib-I-aMeL-LD-Orn-K((2-[2-(2-Amino-ethoxy)-ethoxy]-acetyl)2-(γ-Glu)-CO-(CH2)10-CH3)AQ-Aib-GFIe-aMeY-LIK((2-[2-(2-Amino-ethoxy)-ethox … (peptide)
peptide: YXEGTXTSDXXIXLDXKAQXGFIXXLIKGGPSSGAPPPS
modifications: Aib2, αMeF(2F)6, 4Pal10, Aib11, αMeL13, Orn16, K17(Z1), Aib20, D-Glu24 (printed e), αMeY25, K28(Z1), C-term NH2; Z1=AEEA2-(γ-Glu)-CO-(CH2)10-CH3
notes: G at position 21
As for B1, the Ki (as a rule, a dissociation constant, usually derived from enzyme kinetics or from competition with a known ligand) with human GIP receptor worked out at 0.0197 nM; with human glucagon receptor, 135 nM; with human GLP-1 receptor, 0.188 nM.

B2: Y-Aib-EGT-αMeF(2F)-TSD-4Pal-Aib-I-αMeL-LD-Orn-K((2-[2-(2-Amino-ethoxy)-ethoxy]-acetyl)-(γ-Glu)-(10-(4-carboxyphenoxy)decanoyl))AQ-Aib-K((2-[2-(2-Amino-ethoxy)-e … (peptide)
peptide: YXEGTXTSDXXIXLDXKAQXKFIXXLIEGGPSSGAPPPS
modifications: Aib2, αMeF(2F)6, 4Pal10, Aib11, αMeL13, Orn16, K17(Z1), Aib20, K21(Z1), D-Glu24, αMeY25, C-term NH2; Z1=AEEA-(γ-Glu)-(10-(4-carboxyphenoxy)decanoyl)
B2: the Ki with human GIP receptor stood at 0.046 nM; with human glucagon receptor it was 118 nM; with human GLP-1 receptor, 0.673 nM.

B3: Y-Aib-EGT-αMeF(2F)-TSD-4Pal-Aib-I-αMeL-LD-Orn-K((2-[2-(2-Amino-ethoxy)-ethoxy]-acetyl)2-(γ-Glu)-CO-(CH2)10-CH3)AQ-Aib-TFI-(D-Glu)-αMeY-LIK((2-[2-(2-Amino-ethoxy … (peptide)
peptide: YXEGTXTSDXXIXLDXKAQXTFIXXLIKGGPSSGAPPPS
modifications: Aib2, αMeF(2F)6, 4Pal10, Aib11, αMeL13, Orn16, K17(Z1), Aib20, D-Glu24, αMeY25, K28(Z1), C-term NH2; Z1=AEEA2-(γ-Glu)-CO-(CH2)10-CH3
notes: T at position 21
For B3, the results for the inhibition constant (Ki) in the assay with human GIP receptor, with human glucagon receptor and in the assay with human GLP-1 receptor were 0.0166 nM, 60.6 nM and 0.265 nM, respectively.

B4: Y-Aib-EGT-αMeF(2F)-TSD-4Pal-Aib-I-αMeL-LD-Orn-QAQ-Aib-Orn-FIK((2-[2-(2-Amino-ethoxy)-ethoxy]-acetyl)2-(γ-Glu)-CO-(CH2)12-CO2H)-αMeY-LIK((2-[2-(2-Amino-ethoxy)-e … (peptide)
peptide: YXEGTXTSDXXIXLDXQAQXXFIKXLIKGGPSSGAPPPS
modifications: Aib2, αMeF(2F)6, 4Pal10, Aib11, αMeL13, Orn16, Aib20, Orn21, K24(Z1), αMeY25, K28(Z1), C-term NH2; Z1=AEEA2-(γ-Glu)-CO-(CH2)12-CO2H
As to B4, the Ki with human GIP receptor stood at 0.0279 nM; with human glucagon receptor, 289 nM; with human GLP-1 receptor, 0.346 nM.

B5: Y-Aib-EGT-αMeF(2F)-TSD-4Pal-Aib-I-αMeL-LD-Orn-QAQ-Aib-Orn-FIK((2-[2-(2-Amino-ethoxy)-ethoxy]-acetyl)2-(γ-Glu)-(10-(4-carboxyphenoxy)decanoyl))-αMeY-LIK((2-[2-(2 … (peptide)
peptide: YXEGTXTSDXXIXLDXQAQXXFIKXLIKGGPSSGAPPPS
modifications: Aib2, αMeF(2F)6, 4Pal10, Aib11, αMeL13, Orn16, Aib20, Orn21, K24(Z1), αMeY25, K28(Z1), C-term NH2; Z1=AEEA2-(γ-Glu)-(10-(4-carboxyphenoxy)decanoyl)
Regarding B5, the Ki amounted to 0.0312 nM with human GIP receptor, 131 nM with human glucagon receptor and 0.373 nM with human GLP-1 receptor.

B6: Y-Aib-EGT-αMeF(2F)-TSD-4Pal-Aib-I-αMeL-LD-Orn-QAQ-Aib-Orn-FIK((2-[2-(2-Amino-ethoxy)-ethoxy]-acetyl)2-(γ-Glu)-(11-(4-carboxyphenoxy)undecanoyl)-αMeY-LIK((2-[2-( … (peptide)
peptide: YXEGTXTSDXXIXLDXQAQXXFIKXLIKGGPSSGAPPPS
modifications: Aib2, αMeF(2F)6, 4Pal10, Aib11, αMeL13, Orn16, Aib20, Orn21, K24(Z1), αMeY25, K28(Z1), C-term NH2; Z1=AEEA2-(γ-Glu)-(11-(4-carboxyphenoxy)undecanoyl)
Regarding B6, the results for the Ki with human GIP receptor, with human glucagon receptor and in the assay with human GLP-1 receptor were 0.0507 nM, 130 nM and 0.164 nM, respectively.

B7: Y-Aib-EGT-αMeF(2F)-TSD-4Pal-Aib-G-αMeL-LD-Orn-QAQ-Aib-Orn-FIK((2-[2-(2-Amino-ethoxy)-ethoxy]-acetyl)2-(γ-Glu)-CO-(CH2)12-CO2H)-αMeY-LIK((2-[2-(2-Amino-ethoxy)-e … (peptide)
peptide: YXEGTXTSDXXGXLDXQAQXXFIKXLIKGGPSSGAPPPS
modifications: Aib2, αMeF(2F)6, 4Pal10, Aib11, αMeL13, Orn16, Aib20, Orn21, K24(Z1), αMeY25, K28(Z1), C-term NH2; Z1=AEEA2-(γ-Glu)-CO-(CH2)12-CO2H
notes: G at position 12
In the case of B7, the inhibition constant (Ki) with human GIP receptor is 0.0539 nM; with human glucagon receptor, 592 nM; with human GLP-1 receptor it was 0.386 nM.

Turning to Y[Aib]EGT[αMePhe(2-F)]TSDV[Aib]I[αMeL]LD[Orn]QAQ[Aib]EFIK([AEEA-AEEA-γGlu-Decanoyl(10-(4-HOOC-PhO))])[αMeY]LIK([AEEA-AEEA-γGlu-Decanoyl(10-(4-HOOC-PhO))])GGPSSGAPPPS-NH2 [Y-Aib-EGT-αMeF(2F)-TSDV-Aib-I-αMeL-LD-Orn …], the Ki in the assay with human GIP receptor is 0.0369 nM; with human glucagon receptor, 109 nM; with human GLP-1 receptor, 0.382 nM.

Take Y[Aib]EGT[αMePhe(2-F)]TSDK([AEEA-AEEA-γGlu-Lauroyl])[Aib]I[αMeL]LD[Orn]K([AEEA-AEEA-γGlu-Lauroyl])AQ[Aib][4Pal]FI[dE][αMeY]LIEGGPSSGAPPPS-NH2: the Ki in the assay with human GIP receptor came to 0.0152 nM; with human glucagon receptor, 51.8 nM; with human GLP-1 receptor it was 0.156 nM.

B8: Y-Aib-EGT-αMeF(2F)-TSDY-Aib-I-αMeL-LD-Orn-K((2-[2-(2-Amino-ethoxy)-ethoxy]-acetyl)2-(γ-Glu)-CO-(CH2)10-CH3)AQ-Aib-EFI-(D-Glu)-αMeY-LIEGGPSSGAPPPSK((2-[2-(2-Amin … (peptide)
peptide: YXEGTXTSDYXIXLDXKAQXEFIXXLIEGGPSSGAPPPSK
modifications: Aib2, αMeF(2F)6, Aib11, αMeL13, Orn16, K17(Z1), Aib20, D-Glu24, αMeY25, K40(Z1), C-term NH2; Z1=AEEA2-(γ-Glu)-CO-(CH2)10-CH3
For the molecule B8, the results for the inhibition constant (Ki) with human GIP receptor, with human glucagon receptor and with human GLP-1 receptor were 0.0228 nM, 2.84 nM and 0.137 nM, respectively.

B9: Y-Aib-EGT-αMeF(2F)-TSD-4Pal-Aib-I-αMeL-LD-Orn-K((2-[2-(2-Amino-ethoxy)-ethoxy]-acetyl)2-(γ-Glu)-CO-(CH2)10-CH3)AQ-Aib-Orn-FI-(D-Glu)-αMeY-LIEGGPSSGAPPPSK((2-[2- … (peptide)
peptide: YXEGTXTSDXXIXLDXKAQXXFIXXLIEGGPSSGAPPPSK
modifications: Aib2, αMeF(2F)6, 4Pal10, Aib11, αMeL13, Orn16, K17(Z1), Aib20, Orn21, D-Glu24, αMeY25, K40(Z1), C-term NH2; Z1=AEEA2-(γ-Glu)-CO-(CH2)10-CH3
On to B9, for which the inhibition constant (Ki) in the assay with human GIP receptor was found to be 0.0174 nM; with human glucagon receptor it was 3.59 nM; with human GLP-1 receptor it was 0.0684 nM.

B10: Y-Aib-EGT-αMeF(2F)-TSD-4Pal-Aib-I-αMeL-LD-Orn-K((2-[2-(2-Amino-ethoxy)-ethoxy]-acetyl)-(y-Glu)-(10-(4-carboxyphenoxy)decanoyl))AQ-Aib-EFI-(D-Glu)-αMeY-LIEGGPSSG … (peptide)
peptide: YXEGTXTSDXXIXLDXKAQXEFIXXLIEGGPSSGAPPPSK
modifications: Aib2, αMeF(2F)6, 4Pal10, Aib11, αMeL13, Orn16, K17(Z1), Aib20, D-Glu24, αMeY25, K40(Z1), C-term NH2; Z1=AEEA-(γ-Glu)-(10-(4-carboxyphenoxy)decanoyl)
As for B10, the inhibition constant (Ki) was determined as 0.053 nM with human GIP receptor, 360 nM with human glucagon receptor and 0.765 nM with human GLP-1 receptor.

B11: Y-Aib-EGT-αMeF(2F)-TSD-4Pal-Aib-I-αMeL-LD-Orn-K((2-[2-(2-Amino-ethoxy)-ethoxy]-acetyl)3-(γ … (peptide)
peptide: YXEGTXTSDXXIXLDXKAQXXFIXXLIEGGPSSGAPPPSK
modifications: Aib2, αMeF(2F)6, 4Pal10, Aib11, αMeL13, Orn16, K17(Z1), Aib20, Orn21, D-Glu24, αMeY25, K40(Z1), C-term NH2; Z1=AEEA3-(γ-Glu)-CO-(CH2)10-CH3
B11: the values for the Ki with human GIP receptor, in the assay with human glucagon receptor and with human GLP-1 receptor were 0.0091 nM, 14.4 nM and 0.122 nM, respectively.

B12: Y-Aib-EGT-αMeF(2F)-TSD-4Pal-Aib-I-αMeL-LD-Orn-K((2-[2-(2-Amino-ethoxy)-ethoxy]-acetyl)2-(γ-Glu)-CO-(CH2)10-CH3)AQ-Aib-EFI-(D-Glu)-αMeY-LIEGGPSSGAPPPSK((2-[2-(2- … (peptide)
peptide: YXEGTXTSDXXIXLDXKAQXEFIXXLIEGGPSSGAPPPSK
modifications: Aib2, αMeF(2F)6, 4Pal10, Aib11, αMeL13, Orn16, K17(Z1), Aib20, D-Glu24, αMeY25, K40(Z1), C-term NH2; Z1=AEEA2-(γ-Glu)-CO-(CH2)10-CH3
With B12, the inhibitory constant (Ki) was 0.0163 nM with human GIP receptor, 6.28 nM in the assay with human glucagon receptor and 0.168 nM in the assay with human GLP-1 receptor.

B13: Y-Aib-EGT-αMeF(2F)-TSD-4Pal-Aib-I-αMeL-LD-Orn-K((2-[2-(2-Amino-ethoxy)-ethoxy]-acetyl)3-(γ-Glu)-CO-(CH2)10-CH3)AQ-Aib-EFI-(D-Glu)-αMeY-LIEGGPSSGAPPPSK((2-[2-(2- … (peptide)
peptide: YXEGTXTSDXXIXLDXKAQXEFIXXLIEGGPSSGAPPPSK
modifications: Aib2, αMeF(2F)6, 4Pal10, Aib11, αMeL13, Orn16, K17(Z1), Aib20, D-Glu24, αMeY25, K40(Z1), C-term NH2; Z1=AEEA3-(γ-Glu)-CO-(CH2)10-CH3
B13: the Ki in the assay with human GIP receptor was 0.0206 nM; with human glucagon receptor, 16 nM; with human GLP-1 receptor, 0.219 nM.
